One may read the Kd as a measure of binding affinity in units of concentration. The koff is the rate constant with which the complex falls apart. Broadly, the kon is the rate constant with which the complex forms.

These results are taken from patent US20250064952A1 (ACCELERON PHARMA, published 2025).

First the molecules themselves.
B3: ActRIIB-Fc homodimer (Fc fusion, human, UniProt Q13705 19-137, looked up, not shown: a dimerising Fc or GST)
chain: SGRGEAETRECIYYNANWELERTNQSGLERCEGEQDKRLHCYASWRNSSGTIELVKKGCWLDDFNCYDRQECVATEENPQVYFCCCEGNFCNERFTHLPEAGGPEVTYEPPPTAPTLLT
notes: extracellular domain; also called unmodified ActRIIB-Fc homodimer; ActRIIB-Fc:ActRIIB-Fc homodimer

In test [1] the target is B3. The test is described as follows: SPR (Biacore), 37 C, anti-Fc capture, ligand in flow. Here is the method:
(§1) A Biacore™-based binding assay was used to compare the ligand binding kinetics of an ActRIIB-Fc:ActRIIB(L79E)-Fc heterodimer with those of unmodified ActRIIB-Fc homodimer. Fusion proteins were captured onto the system using an anti-Fc antibody. Ligands were then injected and allowed to flow over the captured receptor protein at 37° C. Results are summarized in the table below, in which ligand off-rates (kd) most indicative of effective ligand traps are denoted in bold.

For test [2], the target named is B3. The test is described as follows: SPR (Biacore), anti-Fc capture, ligand in flow. Here is the method:
(§2) A Biacore™-based binding assay was used to compare ligand binding selectivity of the ActRIIB-Fc:ALK4-Fc heterodimeric complex described above with that of ActRIIB-Fc and ALK4-Fc homodimer complexes. The ActRIIB-Fc:ALK4-Fc heterodimer, ActRIIB-Fc homodimer, and ALK4-Fc homodimer were independently captured onto the system using an anti-Fc antibody. Ligands were injected and allowed to flow over the captured receptor protein. Results are summarized in the table below, in which ligand off-rates (kd) most indicative of effective ligand traps are denoted by bold font.
A general note: In SPR one partner is held on a chip, and binding of the other changes the refractive index at the surface.

Test [3] addresses B3. The test is described as follows: SPR (Biacore), anti-Fc capture, ligand in flow. Here is the method: (§3) A Biacore™-based binding assay was used to compare ligand binding selectivity of the ActRIIB-Fc:ALK7-Fc heterodimeric complex described above with that of ActRIIB-Fc and ALK7-Fc homodimeric complexes. The ActRIIB-Fc:ALK7-Fc heterodimer, ActRIIB-Fc homodimer, and ALK7-Fc homodimer were independently captured onto the system using an anti-Fc antibody. Ligands were injected and allowed to flow over the captured receptor protein. Results are summarized in the table below, in which ligand off-rates (kd) most indicative of effective ligand traps are denoted by bold font.
The source holds these as a separate data set.

The target of test [4] is T1, BMP6 (UniProt P22004 382-513, limits assumed).
T1 sequence (looked up): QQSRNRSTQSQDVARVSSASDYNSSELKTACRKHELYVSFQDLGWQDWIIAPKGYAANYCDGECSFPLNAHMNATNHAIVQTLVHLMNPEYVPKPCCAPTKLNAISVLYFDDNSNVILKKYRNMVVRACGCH
The test is described as follows: SPR (Biacore), 37 C, anti-Fc capture, ligand in flow. The method, then:
as §1

In test [5] the target is T1, BMP6. The test is described as follows: SPR (Biacore), anti-Fc capture, ligand in flow. The method, then: as §2
A further test concerns the target T2, activin AC (UniProt P08476 311-426; P55103 237-352).
T2 construct: Heterodimer of beta A and beta C
T2 sequence (looked up) 1: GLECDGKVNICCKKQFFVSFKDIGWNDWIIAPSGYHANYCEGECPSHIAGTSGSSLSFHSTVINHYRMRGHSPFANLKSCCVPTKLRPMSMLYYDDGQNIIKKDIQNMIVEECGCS
T2 sequence (looked up) 2: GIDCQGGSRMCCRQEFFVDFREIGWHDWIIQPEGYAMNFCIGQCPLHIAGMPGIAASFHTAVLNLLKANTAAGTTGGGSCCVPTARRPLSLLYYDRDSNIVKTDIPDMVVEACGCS
Put plainly: SPR (Biacore), anti-Fc capture, ligand in flow. The method, then: as §3

Test [6] concerns the target T1, BMP6. Put plainly: SPR (Biacore), anti-Fc capture, ligand in flow. The method, then: as §3
The source holds these as a separate data set.

The target in a further test is T3, BMP5 (UniProt P22003 317-454, limits assumed).
T3 sequence (looked up): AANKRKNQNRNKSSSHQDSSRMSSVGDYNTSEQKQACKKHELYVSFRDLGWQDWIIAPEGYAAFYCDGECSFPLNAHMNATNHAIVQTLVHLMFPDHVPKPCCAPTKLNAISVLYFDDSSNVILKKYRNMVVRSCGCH
Put plainly: SPR (Biacore), anti-Fc capture, ligand in flow. Here is the method: as §3

B1: BMP9 (ligand, UniProt Q9UK05 320-429, looked up)
chain: SAGAGSHCQKTSLRVNFEDIGWDSWIIAPKEYEAYECKGGCFFPLADDVTPTKHAIVQTLVHLKFPTKVGKACCVPTKLSPISVLYKDDMGVPTLKYHYEGMSVAECGCR
notes: also called GDF2
In the test with ActRIIB-Fc homodimer [1], B1 gave a Kd of 0.25 nM, a koff of 0.0013 s⁻¹ and a kon of 5e+06 M⁻¹ s⁻¹. In the test with ActRIIB-Fc homodimer [2], this molecule yielded a Kd of 0.077 nM, a koff of 0.0011 s⁻¹ and a kon of 1.4e+07 M⁻¹ s⁻¹. Moreover, in the test with ActRIIB-Fc homodimer [3], the dissociation constant Kd was found to be 0.01 nM, the koff came to 0.001 s⁻¹ and the kon was determined as 1.2e+08 M⁻¹ s⁻¹.

B2: GDF3 (ligand, UniProt Q9NR23 251-364, looked up)
chain: AAIPVPKLSCKNLCHRHQLFINFRDLGWHKWIIAPKGFMANYCHGECPFSLTISLNSSNYAFMQALMHAVDPEIPQAVCIPTKLSPISMLYQDNNDNVILRHYEDMVVDECGCG
notes: also called VGR2
In the case of B2, the Kd with ActRIIB-Fc homodimer [1], with ActRIIB-Fc homodimer [2] and with ActRIIB-Fc homodimer [3] was 1.5 nM each time. Further, the koff in the test with ActRIIB-Fc homodimer [1], in the test with ActRIIB-Fc homodimer [2] and in the test with ActRIIB-Fc homodimer [3] was 0.0022 s⁻¹ in each case. Besides, the kon in the test with ActRIIB-Fc homodimer [1], with ActRIIB-Fc homodimer [2] and with ActRIIB-Fc homodimer [3] was 1.4e+06 M⁻¹ s⁻¹ throughout.
In the case of B3, the Kd in the test with BMP6 [4] was found to be 0.056 nM; with BMP6 [5], 0.19 nM; with activin AC, 0.16 nM; with BMP6 [6], 0.16 nM; with BMP5, 2.9 nM. Moreover, the koff came out at 0.0074 s⁻¹ in the test with BMP6 [4]; 0.0068 s⁻¹ with BMP6 [5]; 0.0031 s⁻¹ in the test with activin AC; 0.0039 s⁻¹ in the test with BMP6 [6]; 0.075 s⁻¹ with BMP5. For the same molecule, the kon with BMP6 [4] came out at 1.3e+08 M⁻¹ s⁻¹; in the test with BMP6 [5] it was 3.2e+07 M⁻¹ s⁻¹; in the test with activin AC, 2e+07 M⁻¹ s⁻¹; with BMP6 [6] it was 2.4e+07 M⁻¹ s⁻¹; with BMP5, 2.6e+07 M⁻¹ s⁻¹.

B4: activin A (ligand, UniProt P08476 311-426, looked up)
chain: GLECDGKVNICCKKQFFVSFKDIGWNDWIIAPSGYHANYCEGECPSHIAGTSGSSLSFHSTVINHYRMRGHSPFANLKSCCVPTKLRPMSMLYYDDGQNIIKKDIQNMIVEECGCS
In the test with ActRIIB-Fc homodimer [1], B4 had an equilibrium dissociation constant (Kd) of 0.025 nM, a koff of 0.00019 s⁻¹ and a kon of 7.4e+06 M⁻¹ s⁻¹. In addition, in the test with ActRIIB-Fc homodimer [2], the Kd amounted to 0.019 nM, the koff is 0.00023 s⁻¹ and the kon was 1.2e+07 M⁻¹ s⁻¹. In the test with ActRIIB-Fc homodimer [3], this molecule showed a Kd of 0.011 nM, a koff of 0.00014 s⁻¹ and an on-rate (kon) of 1.3e+07 M⁻¹ s⁻¹.

B5: BMP10 (ligand, UniProt O95393 317-424, looked up)
chain: NAKGNYCKRTPLYIDFKEIGWDSWIIAPPGYEAYECRGVCNYPLAEHLTPTKHAIIQALVHLKNSQKASKACCVPTKLEPISILYLDKGVVTYKFKYEGMAVSECGCR
In the test with ActRIIB-Fc homodimer [1], B5 displayed a Kd of 0.004 nM, a koff of 0.0002 s⁻¹ and a kon of 5.1e+07 M⁻¹ s⁻¹. In the test with ActRIIB-Fc homodimer [2], this molecule returned a Kd of 0.011 nM, a koff of 0.00026 s⁻¹ and a kon of 2.3e+07 M⁻¹ s⁻¹. Besides, in the test with ActRIIB-Fc homodimer [3], the Kd is 0.025 nM, the koff came to 0.00015 s⁻¹ and the kon is 5.9e+06 M⁻¹ s⁻¹.

B6: GDF11 (ligand, UniProt O95390 299-407, looked up)
chain: NLGLDCDEHSSESRCCRYPLTVDFEAFGWDWIIAPKRYKANYCSGQCEYMFMQKYPHTHLVQQANPRGSAGPCCTPTKMSPINMLYFNDKQQIIYGKIPGMVVDRCGCS
notes: also called BMP11
In the test with ActRIIB-Fc homodimer [1], B6 displayed a Kd of 0.004 nM, a koff of 0.00017 s⁻¹ and a kon of 4.1e+07 M⁻¹ s⁻¹. Also, in the test with ActRIIB-Fc homodimer [2], binding was put at a Kd of 0.002 nM, the koff stood at 0.00011 s⁻¹ and the on-rate constant (kon) is 5e+07 M⁻¹ s⁻¹. In the test with ActRIIB-Fc homodimer [3], this molecule displayed a Kd of 0.002 nM, a koff of 0.00015 s⁻¹ and a kon of 9.6e+07 M⁻¹ s⁻¹.
